What all share (conditions): both partners purified
Experiment [1] deals with T1, PNUTS N-terminal domain (TND), rat, residues 5-160, C48S (rat, C48S).
T1 construct: PP1 nuclear targeting subunit (PNUTS, PPP1R10), rat, residues 5-160; Cloned in pRP1b; His6 tag cleaved with TEV protease; also called PNUTS C48S; PNUTS5-160 C48S; source: E. coli BL21 (DE3), purified (HisTrap, TEV cleavage, Ni-NTA flow-through, SEC)
T1 chain: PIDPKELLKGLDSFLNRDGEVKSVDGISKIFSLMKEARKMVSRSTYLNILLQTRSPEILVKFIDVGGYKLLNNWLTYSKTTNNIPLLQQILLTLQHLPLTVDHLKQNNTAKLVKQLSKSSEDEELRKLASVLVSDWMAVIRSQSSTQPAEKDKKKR
In words: ITC; Tox4 titrated into PNUTS; Affinity-ITC, 25 °C; 20 mM Tris pH 8.5, 150 mM NaCl, 0.1 mM ZnSO4, 0.5 mM TCEP; one-site model assuming 1:1 stoichiometry; 3 replicates. Background: ITC needs no label: the signal is the heat of the interaction.

Experiment [2] addresses T2, PNUTS TND (rat PNUTS 5-160, C48S) (rat, UniProt O55000 5-160, C48S).
T2 construct: PNUTS (PPP1R10), rat, N-terminal TFIIS domain, residues 5-160; cloned in pRP1b; 15N-labelled for NMR; also called PNUTS N-terminal domain; PNUTS NTD; source: E. coli BL21 (DE3), purified (HisTrap, TEV cleavage, Ni-NTA flow-through, SEC)
T2 sequence (looked up): T1 chain with N16T, S28A, L50I, S55A, I58V, N73S
In words: NMR titration; 2D [1H,15N] HSQC of 15N-labelled PNUTS with zinc-loaded Tox4 at a 1:2 molar ratio; 20 mM MES pH 6, 150 mM NaCl, 5 mM DTT; 298 K.

Experiment [3] addresses T2, PNUTS TND (rat PNUTS 5-160, C48S). Description: ITC; Tox4 titrated into PNUTS at 25°C; 20 mM Tris pH 8.5, 150 mM NaCl, 0.1 mM ZnSO4, 0.5 mM TCEP; one-site model assuming 1:1.

3 molecules from PMC12278311, “PNUTS:PP1 recruitment to Tox4 regulates chromosomal dispersal in Drosophila germline development” (Cell reports, 2025) can be followed below.

Changes are numbered by the printed parent chain. Names and notes keep the numbering of the source.

B1: Tox4 C-terminal domain, human, residues 571-621, C601S (domain or fragment)
chain: RCVRSGCENPPIVSKDWDNEYCSNECVVKHSRDVFLAWVASRNSNTVVFVK
notes: TOX4, human, residues 571-621; Cloned in pTHMT (His6-MBP-TEV site); also called TOX4 C601S; Tox4571-621 C601S; source: E. coli BL21 (DE3) with 0.1 mM ZnSO4, purified (HisTrap, TEV cleavage, Ni-NTA and amylose resin, SEC); not shown: His6, N-terminal, cleaved; MBP, N-terminal, cleaved
Usually Kd stands for the equilibrium constant for the complex coming apart. The low end stands for higher affinity, the high end for lower affinity. B1 showed a Kd in experiment [1] of 300 ± 200 pM.

B2: Tox4 CTD (human Tox4 571-621) (domain or fragment, UniProt O94842 571-621, looked up)
chain: B1 chain with S31C
notes: TOX4, human, C-terminal domain, residues 571-621; also called Tox4 C-terminal domain; zinc-loaded Tox4; source: E. coli BL21 (DE3) with 0.1 mM ZnSO4, purified (HisTrap, TEV cleavage, amylose resin, SEC); not shown: His6, N-terminal, cleaved; MBP, N-terminal, cleaved
As for B2, in experiment [2], the binding result is reported as “binds”.

B3: Tox4 CTD (human Tox4 571-621, C601S) (domain or fragment, UniProt O94842 571-621, looked up)
chain: B1 chain
notes: TOX4, human, C-terminal domain, residues 571-621; also called Tox4_(C601S); source: E. coli BL21 (DE3) with 0.1 mM ZnSO4, purified (HisTrap, TEV cleavage, amylose resin, SEC); not shown: His6, N-terminal, cleaved; MBP, N-terminal, cleaved
For B3, binding in experiment [3] was characterised by a dissociation constant (Kd) of 300 pM.
